Measurements reported in the supplement of paper PMC12042874.
± gives the uncertainty stated by the source.

Test: amyloid nucleation score (Sup35N fusion, yeast selection) (log enrichment); library NNK1; higher = more nucleation; inactive = no reads after selection
Outline: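 DiMSum was used to calculate nucleation scores as log enrichment of output over input reads, centred on the mode score of non-aggregating sequences. Sequences with fewer than 100 input reads were not scored. Input and output came from Illumina sequencing of plasmid inserts in psi-negative yeast expressing peptides of 20 random codons fused to Sup35N, induced 24 hours with 100 μM copper sulfate and then grown 7 days at 30°C on medium lacking adenine and uracil.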
Substance DLCPSGGVSDLCNPYGCFTL has an amyloid nucleation score of -0.427 ± 0.71. Substance NWLNWLTHLFS has an amyloid nucleation score of 0.407 ± 0.49. CVKSYK showed an amyloid nucleation score of 0.48 ± 0.66. SYSEFSVEGFKGHVGAYGG gave an amyloid nucleation score of -0.136 ± 0.29. For VASRFVCWCRGQAQWVSQCN, the amyloid nucleation score was 0.434 ± 0.45. Work on LLQVWYFFR yielded an amyloid nucleation score of 0.296 ± 0.66. Work on YSIFILRSAWMMRRIEMSTA yielded an amyloid nucleation score of -0.252 ± 0.45. For KMYLLRIQ, the amyloid nucleation score was 0.661 ± 0.82. QMSVAG gave an amyloid nucleation score of 1.38 ± 0.28. Substance FMFLESRPSNCSTTPCKY has an amyloid nucleation score of -0.29 ± 0.6. For SFTYLCFKQILKPKCTLLAP, the amyloid nucleation score was “inactive”. Substance YYLQDDTWGLKFNPIVSTCF has an amyloid nucleation score of 1.13 ± 0.54. Substance FFESEVSDKNFGSC has an amyloid nucleation score of -1.29 ± 2.4. Substance SSVKTVDLNCI has an amyloid nucleation score of -0.125 ± 0.37. TGNCAMFPTWLHVIPFSQY showed an amyloid nucleation score of 3.1 ± 0.14. DNTWLFVAL showed an amyloid nucleation score of 0.918 ± 0.35. LCAEN showed an amyloid nucleation score of 0.48 ± 0.52. With FLAWRTLDEMVLCKRCDNAI the amyloid nucleation score was 0.291 ± 1. Work on KLSNEYW yielded an amyloid nucleation score of -0.485 ± 0.36. Work on WIKLRLGFKRSFIPECGFLG yielded an amyloid nucleation score of -0.208 ± 0.54. With LYLAQFQGNGDLFSVPPCKV the amyloid nucleation score was 0.16 ± 0.64. IIRNVTL gave an amyloid nucleation score of 0.263 ± 0.24. Work on LYIAH yielded an amyloid nucleation score of -0.722 ± 0.42. For EVPSMRVNAPLKV, the amyloid nucleation score was “inactive”. Substance KNFWKGVLYSIRCHNQWNVG has an amyloid nucleation score of 5.41 ± 0.092. For KELKYCVFALVVAD, the amyloid nucleation score was 0.012 ± 0.63. ARSVKAIIKAICRGV gave an amyloid nucleation score of -0.055 ± 0.95. RNQKGIL showed an amyloid nucleation score of -0.042 ± 0.23. With VWVKSHLY the amyloid nucleation score was -0.537 ± 0.25. For APSAVS, the amyloid nucleation score was 0.876 ± 0.53. Substance TVGSLRAW has an amyloid nucleation score of 1.15 ± 0.62. Work on TDLLWKTSLLPNVY yielded an amyloid nucleation score of 1.71 ± 0.36. With VMLFSDVFWALMLHFYDPAF the amyloid nucleation score was -1.01 ± 0.61. With RNWYKW the amyloid nucleation score was “inactive”. In the case of DRIFDHGIHMFSIVGQDLFT, the amyloid nucleation score is reported as “inactive”. For EWTSCMPLAFMLPLVILSFA, the amyloid nucleation score was 0.532 ± 0.7. DGTSPRQLKCMLKFLFDVWD gave an amyloid nucleation score of 2.94 ± 0.2. For LWLAVSSVNCHSRHLLVWVT, the amyloid nucleation score was “inactive”. Substance VQRCWYGR has an amyloid nucleation score of -1.94 ± 2.7. For TIFTPNIR, the amyloid nucleation score was 0.132 ± 0.66. In the case of GFPVVAEHVVEFKLV, the amyloid nucleation score is reported as 0.093 ± 0.7. For LGFTRIGPGALTAKA, the amyloid nucleation score was -0.72 ± 1.2. In the case of NVDRSCWRRECPDCWVMLNM, the amyloid nucleation score is reported as 0.664 ± 0.49. DAWEDGSKMYESLGV gave an amyloid nucleation score of -1.01 ± 0.56. Work on LGWNKSTAYELCFTPSSGGY yielded an amyloid nucleation score of 2.11 ± 0.15. Work on RSQFWHFQWWTKSHNIMGLD yielded an amyloid nucleation score of 0.803 ± 1.1. For TLNQHY, the amyloid nucleation score was 0.025 ± 0.55. With AYIKNQ the amyloid nucleation score was -0.305 ± 0.47. In the case of HLFRYSGTTSAV, the amyloid nucleation score is reported as 0.386 ± 0.53. GIGHELFSNWVMEQLA showed an amyloid nucleation score of -0.23 ± 0.35. RNIRIR gave an amyloid nucleation score of -0.534 ± 0.25. With MFCRVVRGGCGSSIGC the amyloid nucleation score was 0.249 ± 0.79. Work on TAIRLVQS yielded an amyloid nucleation score of -0.283 ± 0.44. RDGAVFYFMEVRVSYRFLTN gave an amyloid nucleation score of -0.392 ± 0.7. Substance SVHKSMKSDINMACHAKR has an amyloid nucleation score of 1.04 ± 0.6. GYRSIGASGTQDLSQVVLNK gave an amyloid nucleation score of 0.901 ± 0.98. For TKFIE, the amyloid nucleation score was 1.2 ± 0.37. Substance YHNCDKDAANLFYCQ has an amyloid nucleation score of 2.01 ± 0.47. In the case of DVKFVVFSNRAWVCTSASKW, the amyloid nucleation score is reported as 4.01 ± 0.11. In the case of WVHWWFRHVNMACQNGGFIF, the amyloid nucleation score is reported as -0.565 ± 0.68. With SLRFPKKGYVTRCTAWYLGV the amyloid nucleation score was 3.45 ± 0.083. For LFTFIGAVCFILNIACSLFF, the amyloid nucleation score was 1.05 ± 0.58. With DFASVEFWLIALPSQMCWFF the amyloid nucleation score was 0.056 ± 0.76. With SDSIVNKKIVRWYRVFRIGC the amyloid nucleation score was 1.19 ± 0.51. In the case of SLQTTWLKNLGDLSSSREAS, the amyloid nucleation score is reported as -0.121 ± 0.73. LSQFD gave an amyloid nucleation score of 1.17 ± 0.41. In the case of TYRCGHLLGFVY, the amyloid nucleation score is reported as “inactive”. In the case of NTADTFMNLAILSC, the amyloid nucleation score is reported as 0.148 ± 0.35. Work on NLFNYLSFD yielded an amyloid nucleation score of -0.675 ± 0.49. YNCYREGAWSITIRWIANRV gave an amyloid nucleation score of 0.124 ± 0.34. SHCCLDQLGVSDKAR showed an amyloid nucleation score of 0.142 ± 0.62. In the case of FRWNLQAWQEVSGAGQRAVV, the amyloid nucleation score is reported as -0.014 ± 0.76. Work on KDQTTYMDCFV yielded an amyloid nucleation score of 0.101 ± 0.49. Substance IWQFDWPHRGIEMRVRRDMT has an amyloid nucleation score of 0.135 ± 0.69. LYNIVCLSDIL showed an amyloid nucleation score of 5.88 ± 0.061. Substance SYGLCMMAFLSLDAS has an amyloid nucleation score of 0.517 ± 0.28. With YIDIVSQKC the amyloid nucleation score was 0.922 ± 0.62. For CILLYMQKSIGFGNSVKFAF, the amyloid nucleation score was “inactive”. NMRTNQDKSCGCCQLPVQAG gave an amyloid nucleation score of -0.119 ± 1.2. Substance TSIRRRLVRFFFNILPVVGL has an amyloid nucleation score of 1.67 ± 0.17. Substance ADRRLW has an amyloid nucleation score of -0.04 ± 0.32. In the case of VSHIAPRWPLSRTIRETQRM, the amyloid nucleation score is reported as 0.479 ± 1.2. YSRWER gave an amyloid nucleation score of -0.565 ± 0.39. SKGPWGLY gave an amyloid nucleation score of -0.517 ± 1.1. With TFYYPINFHTLGLYKLVVML the amyloid nucleation score was 0.589 ± 0.33. With IEGWHTRVHRRTLIVMCLIG the amyloid nucleation score was 1.09 ± 0.41. Work on AYCTLNR yielded an amyloid nucleation score of 0.603 ± 0.36. Work on FVTDCLHYRRTWQLGC yielded an amyloid nucleation score of 0.419 ± 0.28. HAGLQRALTPQIRLFSGLAS showed an amyloid nucleation score of -0.268 ± 1.4. With TRFLNDIVMSIDSSIIDPTC the amyloid nucleation score was 0.809 ± 0.7. In the case of FYLVATCVAFFRLHWFACN, the amyloid nucleation score is reported as -0.218 ± 0.36. Work on QRISWDFSWCRASWMPNLR yielded an amyloid nucleation score of 0.062 ± 0.34. Substance MNNKDDAVYVEHL has an amyloid nucleation score of 0.072 ± 0.23. LQCSCLTVWLQNRPDQLSPS showed an amyloid nucleation score of 0.1 ± 0.73. Substance YYFSVYQFCGGVFGSRDCLE has an amyloid nucleation score of 6.711 ± 0.05. QAKPLMLNV showed an amyloid nucleation score of -0.96 ± 1.9. Substance LIFQVSQSIGTYSCTKSEGR has an amyloid nucleation score of 0.756 ± 0.2. With LFDWWCFEKYLICRVGSLTF the amyloid nucleation score was -0.091 ± 0.51. In the case of QLLSLCLDQTVKRRYFNFRA, the amyloid nucleation score is reported as -0.073 ± 0.26. For WYRGMHLVARRFMTYLARKY, the amyloid nucleation score was 1.32 ± 0.65. In the case of SQRNLHTTYTYVAYRDYAER, the amyloid nucleation score is reported as 0.957 ± 0.29. GKWPRRSW gave an amyloid nucleation score of 0.376 ± 1.1. With TRYSTSISGC the amyloid nucleation score was 0.332 ± 0.69. With GTFSGQKLCYVCVSLSGFG the amyloid nucleation score was 0.005 ± 0.5. Substance PCSSFVNCKIMFLTLMDVVW has an amyloid nucleation score of 7.739 ± 0.056. With CAYSNKE the amyloid nucleation score was 0.228 ± 0.34. Work on HCMGRACPHS yielded an amyloid nucleation score of 5.11 ± 0.11. With LYTYALARCIFISFMDCRMN the amyloid nucleation score was 0.371 ± 0.26. NQYMIQGKVSRSNIMCLGMR showed an amyloid nucleation score of -0.067 ± 0.21. Substance GYMCLSL has an amyloid nucleation score of 0.395 ± 0.29. For DVRAWVMARVGRGSELGARG, the amyloid nucleation score was 0.075 ± 0.84. With TLGAVHTVHVRFGESSNVFL the amyloid nucleation score was 0.055 ± 0.74. Substance DEPMSDLALVFMYYTVYPGG has an amyloid nucleation score of 0.638 ± 0.55. With VINWLCWVYLECLWYYWMVG the amyloid nucleation score was “inactive”. Substance QMVQYSRKSITFLGRPVLFS has an amyloid nucleation score of 0.291 ± 0.55. For ARLLSQVEAEASWSNTY, the amyloid nucleation score was 0.568 ± 0.43. For MNPGG, the amyloid nucleation score was -0.026 ± 0.21. Work on YQLWPQASMKMCD yielded an amyloid nucleation score of 0.258 ± 0.4. For HDSTGHGEYVVGPEPFFPCA, the amyloid nucleation score was 0.024 ± 0.4. With RAYTCRCEFAQGFVYNLIFS the amyloid nucleation score was 5.4 ± 0.079. NLTCSLMVCRWFPIPVL showed an amyloid nucleation score of 0.171 ± 0.38. For MSLMSPAYNATNYWAVWRHK, the amyloid nucleation score was -0.029 ± 0.27. Work on GKIRSKKGQSLGQNT yielded an amyloid nucleation score of -1.16 ± 1.2. QPILPSPIRWFEESMDLVWG gave an amyloid nucleation score of -0.542 ± 0.4. Work on GVGMAPATLGPETHEKSELM yielded an amyloid nucleation score of 0.282 ± 0.3. Work on VPLVVNRDARH yielded an amyloid nucleation score of 1.26 ± 0.59. In the case of HNIAIAPARWCVSSIRSG, the amyloid nucleation score is reported as -0.53 ± 0.45. With FSIRTFVIRFTLMEHLSLEL the amyloid nucleation score was 0.266 ± 0.52. Substance MKFDYFRRC has an amyloid nucleation score of -0.471 ± 0.5. For CSGSTRVKHFHRFFTNWLLM, the amyloid nucleation score was 0.323 ± 0.63. With SMGLHLMQMAAGEHIGRNR the amyloid nucleation score was -0.31 ± 0.4. In the case of NRVSFYATTNFSISRFGSWG, the amyloid nucleation score is reported as “inactive”.
